From patent US10253323B2, “Chloroplast transit peptides” (priority 2015, dated 2019)
Entries after “also recorded” stand apart in the source; their conditions may differ.

How the values were obtained:
[1] = test system: infiltrated tobacco cells; assay: Western blot of infiltrated tobacco plants; format: cell-based, Nicotiana tabacum; details: infiltrated tobacco leaf tissue
Method: Samples of the infiltrated tobacco plants were assayed via Western blotting. Leaf punches were collected and subjected to bead-milling. About 100-200 mg of leaf material was mixed with 2 BBs (Daisy; Rogers, Ark.) and […] of PBST for 3 minutes in a Kleco™ bead mill. The samples were then spun down in a centrifuge at 14,000× g at 4° C. The supernatant was removed and either analyzed directly via Western blot or immunoprecipitated. The immunoprecipitations were performed using the Pierce Direct IP Kit™ (Thermo Scientific; Rockford, Ill.) following the manufacturer's protocol. Approximately, 50 μg of anti-YFP or anti-GFP was bound to the resin. The samples were incubated with the resin overnight at 4° C. Next, the samples were washed and eluted the following morning and prepped for analysis by combining equal volumes of 2×8M Urea sample buffer and then boiling the samples for 5 minutes. The boiled samples were run on a 4-12% SDS-Bis Tris gel in MOPS buffer for 40 minutes. The gel was then blotted using the Invitrogen iBlot™ (Life Technologies; Carlsbad, Calif.) following the manufacturer's protocol. The blotted membrane was blocked for 10 minutes using 5% non-fat dry milk in PBS-Tween® solution. The membrane was probed with the primary antibody (monoclonal anti-GFP or anti-YFP in rabbit) used at a 1:1000 dilution in the 5% non-fat dry milk in PBS-Tween® solution for 1 hour. Next, the membrane was rinsed three times for five minutes with PBS-Tween® to remove all unbound primary antibody. The membrane was probed with a secondary monoclonal anti-rabbit in goat antibody (Life Technologies) used at a 1:1000 dilution, for 60 minutes. The membrane was washed as previously described and developed by adding Themo BCIP/NBT™ substrate. The colormetric substrate was allowed to develop for 5-10 minutes and then the blots were rinsed with water before being dried.

[2] = test system: chloroplasts of the tobacco leaf tissues; assay: Tobacco transient assay, confocal microscopy of TraP-YFP/GFP; format: cell-based, Nicotiana tabacum; details: TraP-YFP or TraP-GFP fusion, Agrobacterium-infiltrated tobacco leaf tissue
From the text: The above described chimeric chloroplast transit peptide sequences were initially tested via a transient in planta assay. Polynucleotide sequences which encode the TraP10 (SEQ ID NO:9), TraP11 (SEQ ID NO:10), TraP17 (SEQ ID NO:11), TraP18 (SEQ ID NO:12), TraP19 (SEQ ID NO:13), TraP26 (SEQ ID NO:14), TraP27 (SEQ ID NO:15), and TraP28 (SEQ ID NO:16), chimeric chloroplast transit peptide sequences were synthesized. A linker sequence (SEQ ID NO:17) was incorporated between the TraP sequence and the yfp coding sequence of TraP10 and TraP11. The resulting constructs contained two plant transcription units (PTU). The first PTU was comprised of the Arabidopsis thaliana Ubiquitin 10 promoter (AtUbi10 promoter; Callis, et al., (1990) J. Biol. Chem., 265: 12486-12493), TraP-yellow fluorescent protein fusion gene (TraP-YFP; US Patent App. 2007/0298412) or the TraP-green fluorescent protein fusion gene (TraP-GFP; Sheen et al., (1995) Plant J., 8(5): 777-84), and Agrobacterium tumefaciens ORF 23 3′ untranslated region (AtuORF23 3′UTR; U.S. Pat. No. 5,428,147). The second PTU was comprised of the Cassava Vein Mosaic Virus promoter (CsVMV promoter; Verdaguer et al., (1996) Plant Molecular Biology, 31: 1129-1139), phosphinothricin acetyl transferase (PAT; Wohlleben et al., (1988) Gene, 70: 25-37) or DSM-II (International Patent App. 2008070845), and Agrobacterium tumefaciens ORF 1 3′ untranslated region (AtuORF1 3′UTR; Huang et al., (1990) J. Bacteriol., 172: 1814-1822). Construct pDAB101979 contains the TraP10 chimeric chloroplast transit peptide (FIG. 3). Construct pDAB101980 contains the TraP11 chimeric chloroplast transit peptide (FIG. 4). Construct pDAB107634 contains the TraP17 chimeric chloroplast transit peptide (FIG. 5). Construct pDAB107635 contains the TraP18 chimeric chloroplast transit peptide (FIG. 6). Construct pDAB107636 contains the TraP19 chimeric chloroplast transit peptide (FIG. 7). Construct pDAB109847 contains the TraP26 chimeric chloroplast transit peptide (FIG. 8). Construct pDAB109848 contains the TraP27 chimeric chloroplast transit peptide (FIG. 9). Construct pDAB109849 contains the TraP28 chimeric chloroplast transit peptide (FIG. 10). […] The constructs were confirmed via restriction enzyme digestion and sequencing. Finally, the constructs were transformed into Agrobacterium tumefaciens and stored as glycerol stocks.
From an Agrobacterium glycerol stock, a loop full of frozen culture was inoculated into 2 ml of Yeast-extract Peptone Dextrose (100 μg/ml spectinomycin) in a 14 ml sterile tube. The inoculated media was incubated at 28° C. overnight with shaking at 200 rpm. The following day about 100 μl of the culture was used to inoculate 25 ml of YPD (100 μg/ml spectinomycin) in a 125 ml sterile tri-baffled flask, and incubated overnight at 28° C. overnight with shaking at 200 rpm. The following day the cultures were diluted to an OD600 of 0.5 in sterile ddH2O (pH 8.0). The diluted Agrobacterium strain was mixed with a second Agrobacterium strain containing the P19 helper protein at a ratio of 1:1. The culture were used for tobacco leaf infiltration via the Voinnet method. Voinnet O, Rivas S, Mestre P, and Baulcombe D, (2003) An enhanced transient expression system in plants based on suppression of gene silencing by the p19 protein of tomato bushy stunt virus. The Plant Journal, 33: 949-956. Infiltrated tobacco plants were placed in a Conviron™ set at 16 hr of light at 24° C. for at least three days until being assayed.
Agrobacterium-infiltrated tobacco leaves were severed from the plant, and placed into a petri-dish with water to prevent dehydration. The infiltrated tobacco leaves were observed under blue light excitation with long-pass filter glasses held in place using a Dark Reader Hand Lamp™ (Clare Chemical Research Co.; Dolores, Colo.) to identify undamaged areas of the leaf that were successfully expressing the YFP or GFP reporter proteins. […]

[3] = test system: chloroplasts of the maize protoplasts; assay: Maize protoplast transient assay, microscopy of TraP-GFP; format: cell-based, Zea mays c.v. B104; details: TraP-GFP fusion, transfected maize protoplasts, microscopy after 12 hours
Method: Seed of Zea mays c.v. B104 were surface sterilized by shaking vigorously in 50% Clorox™ (3% sodium hypochlorite), containing 2-3 drops of Tween® 20, for about 20 minutes. The seeds were rinsed thoroughly with sterile distilled water. The sterile seed were plated onto ½ MS medium in Phytatrays or similar type boxes, and allowed to grow in the dark (28° C.) for 12 to 20 days. A maize protoplast transient assay was used to obtain and transfect maize protoplasts from leaves of Zea mays c.v. B104. This maize protoplast assay is a modification of the system described by Yoo, S.-D., Cho, Y.-H., and Sheen, J., (2007), Arabidopsis Mesophyll Protoplasts: A Versitile Cell System for Transient Gene Expression Analysis, Nature Protocols, 2: 1565-1572. The solutions were prepared as described by Yoo et. al., (2007), with the exception that the mannitol concentration used for the following experiments was change to 0.6 M.
Transfection of 100 to 500 μl of protoplasts (1-5×10^5 cells) was completed by adding the protoplasts to a 2 ml microfuge tube containing about 40 μg of plasmid DNA, at room temperature. The volume of DNA was preferably kept to about 10% of the protoplast volume. The protoplasts and DNA were occasionally mixed during a 5 minute incubation period. An equal volume of PEG solution was slowly added to the protoplasts and DNA, 2 drops at a time with mixing in between the addition of the drops of PEG solution. The tubes were allowed to incubate for about 10 minutes with occasional gentle mixing. Next, 1 ml of W5+ solution was added and mixed by inverting the tube several times. The tube(s) were centrifuged for 5 minutes at 75× g at a temperature of 4° C. Finally, the supernatant was removed and the pellet was resuspended in 1 ml of WI solution and the protoplasts were placed into a small petri plate (35×10 mm) or into 6-well multiwell plates and incubated overnight in the dark at room temperature. Fluorescence of GFP was viewed by microscopy after 12 hours of incubation. The microscopy conditions similar to those previously described were used for the imaging.

[4] = test system: dgt-28 transformed T1 Arabidopsis; assay: Glyphosate tolerance of dgt-28 transformed T1 Arabidopsis; format: in vivo, Arabidopsis thaliana; details: dgt-28 linked with the chloroplast transit peptide, T1 Arabidopsis
Method: The Arabidopsis T1 transformants (from transformation with pDAB114286 or pDAB114287) were first selected from the background of untransformed seed using a glufosinate selection scheme. Three flats or 50,000 seed were analyzed for each T1 construct. The selected T1 plants were molecularly characterized (as described above) and events with a range of copy number were sprayed with various rates of commercial glyphosate.
Transgenic T1 Arabidopsis plants containing the dgt-28 transgene were sprayed with differing rates of glyphosate. Elevated rates were applied in this study to determine the relative levels of resistance (420, 840, 1,680 or 3,360 g ae/ha). The typical 1× field usage rate of glyphosate is 1120 g ae/ha. The response of these plants is presented in terms of % visual injury 2 weeks after treatment (WAT). The T1 Arabidopsis plants that were used in this study were of variable copy number for the dgt-28 transgene. The low copy dgt-28 T1 Arabidopsis plants were self-pollinated and used to produce T2 plants.
An arithmetic mean and standard deviation is presented for each construct used for Arabidopsis transformation. The range in individual response is also indicated in the last column for each rate and transformation. Wildtype, non-transformed Arabidopsis thaliana c.v. Columbia served as a glyphosate sensitive control.

Molecule | TraP processed and cleaved from the YFP or GFP protein [1] | translocation of YFP or GFP fluorescent protein into chloroplasts [2] | translocation of YFP or GFP fluorescent protein into chloroplasts ([2]; listed as TraP19-GFP) | translocation of GFP fluorescent protein into chloroplasts [3] | translocation of GFP fluorescent protein into chloroplasts ([3]; listed as TraP19-GFP) | translocation of GFP fluorescent protein into chloroplasts ([3]; listed as Trap19) | translocation of YFP or GFP fluorescent protein into chloroplasts ([2]; listed as TraP18-GFP) | translocation of GFP fluorescent protein into chloroplasts ([3]; listed as TraP18-GFP) | translocation of YFP or GFP fluorescent protein into chloroplasts ([2]; listed as TraP27-GFP) | protection to glyphosate [4]
TraP19: chimeric chloroplast transit peptide, SEQ ID NO:5; N-terminus Amaranthus, C-terminus Dunaliella salina; tested fused to GFP (pDAB107636) (protein, TraP19) MAQATTINNGVHTGQLHHTLPKTQLPKSSKVNDVVPHVYSAPLSVARRSCSKSSIRSTRRLQTTVCS | processed and cleaved from the YFP or GFP protein | accumulated within the chloroplasts; also recorded: successfully targeted GFP to maize and tobacco chloroplasts | translocated into the chloroplasts | successfully targeted GFP to maize and tobacco chloroplasts | translocated into the chloroplasts | accumulated within the chloroplasts | – | – | – | –
TraP18: chimeric chloroplast transit peptide, SEQ ID NO:4; N-terminus Oryza sativa, C-terminus Amaranthus; tested fused to GFP (pDAB107635) (protein, TraP18) MAATMASNAAAAAAVSLDQAVAASAAFSSKTLNFGSNLRISPKFMSLTNKRVGGQSSIVPKIQASVA | processed and cleaved from the YFP or GFP protein | accumulated within the chloroplasts; also recorded: successfully targeted GFP to maize and tobacco chloroplasts | – | accumulated within the chloroplasts; also recorded: successfully targeted GFP to maize and tobacco chloroplasts | – | – | translocated into the chloroplasts | translocated into the chloroplasts | – | –
TraP27: synthetic chloroplast transit peptide, SEQ ID NO:7; tested fused to GFP (pDAB109848) (protein, TraP27) MATFTRVCHTARKSFVSLSNSQANSPVSVRFLSLPMPAARPAVKSGVRLWGCRLSFKVSAS | processed and cleaved from the YFP or GFP protein | accumulated within the chloroplasts; also recorded: successfully targeted GFP to tobacco chloroplasts | – | – | – | – | – | – | translocated into the chloroplasts | provide protection to glyphosate
